According to US20200247894A1 (Regeneron, published 2020):

T1: Macaca fascicularis IL2Rγ extracellular domain expressed with a C-terminal myc-myc-hexahistidine tag (Macaca fascicularis)
T1 construct: also called mfIL-2Rg-MMH; mfIL-2RG-MMH
T1 chain: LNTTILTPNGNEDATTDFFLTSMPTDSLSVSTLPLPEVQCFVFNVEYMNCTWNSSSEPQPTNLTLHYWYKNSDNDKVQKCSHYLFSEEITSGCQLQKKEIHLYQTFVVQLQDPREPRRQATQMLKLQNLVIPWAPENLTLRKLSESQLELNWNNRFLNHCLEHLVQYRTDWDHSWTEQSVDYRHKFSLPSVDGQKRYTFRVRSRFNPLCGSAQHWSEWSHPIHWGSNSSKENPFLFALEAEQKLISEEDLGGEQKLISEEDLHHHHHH

T2: Human IL2Rγ extracellular domain expressed with a C-terminal myc-myc-hexahistidine tag (human)
T2 construct: also called hIL-2Rg-MMH; hIL-2RG-MMH
T2 chain: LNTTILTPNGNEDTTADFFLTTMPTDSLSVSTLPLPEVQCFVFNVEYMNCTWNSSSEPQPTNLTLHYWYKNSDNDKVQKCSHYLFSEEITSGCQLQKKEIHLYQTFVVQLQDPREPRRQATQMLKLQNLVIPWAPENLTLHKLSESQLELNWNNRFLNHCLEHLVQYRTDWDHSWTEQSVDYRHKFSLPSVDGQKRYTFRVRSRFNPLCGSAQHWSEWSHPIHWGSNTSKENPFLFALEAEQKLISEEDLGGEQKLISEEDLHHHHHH

T3: Macaca fascicularis IL2Rγ extracellular domain expressed with a C-terminal myc-myc-hexahistidine tag (Macaca fascicularis)
T3 construct: also called mfIL-2Rg-MMH; mfIL-2RG-MMH
T3 chain: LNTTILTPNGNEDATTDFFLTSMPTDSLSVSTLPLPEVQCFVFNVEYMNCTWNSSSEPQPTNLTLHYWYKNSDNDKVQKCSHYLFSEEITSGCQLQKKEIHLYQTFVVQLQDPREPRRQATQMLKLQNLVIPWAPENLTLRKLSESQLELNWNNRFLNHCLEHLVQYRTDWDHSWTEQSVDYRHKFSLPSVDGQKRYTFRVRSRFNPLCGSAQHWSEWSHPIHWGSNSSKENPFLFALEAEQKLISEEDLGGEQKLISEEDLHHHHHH

T4: Human IL2Rγ extracellular domain expressed with a C-terminal myc-myc-hexahistidine tag (human)
T4 construct: also called hIL-2Rg-MMH; hIL-2RG-MMH
T4 chain: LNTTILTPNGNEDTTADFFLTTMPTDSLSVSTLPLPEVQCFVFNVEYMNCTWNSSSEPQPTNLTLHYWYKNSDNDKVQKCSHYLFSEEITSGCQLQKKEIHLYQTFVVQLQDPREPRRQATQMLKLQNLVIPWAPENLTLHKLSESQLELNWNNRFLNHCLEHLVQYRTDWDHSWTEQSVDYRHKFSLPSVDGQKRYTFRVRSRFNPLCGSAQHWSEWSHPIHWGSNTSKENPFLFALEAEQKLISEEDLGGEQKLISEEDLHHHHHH


Experiments:
[1] = molecular target: T1, Macaca fascicularis IL2Rγ extracellular …; assay: SPR Biacore 4000, mAb captured by anti-hFc, HBS-ET, 25C
Method: (§1) Equilibrium dissociation constants (KD values) for IL-2Rγ binding to purified anti-IL2Rγ monoclonal antibodies were determined using a Biacore 4000 instrument equipped with a real-time surface plasmon resonance biosensor. All binding studies were performed in 10 mM HEPES, 150 mM NaCl, 3 mM EDTA, and 0.05% v/v Surfactant Tween-20, pH 7.4 (HBS-ET) running buffer at 25° C. and 37° C. The Biacore sensor surface was first derivatized by amine coupling with a monoclonal mouse anti-human Fc antibody (GE, # BR-1008-39) to capture anti-IL2Rγ monoclonal antibodies.
(§2) The dissociation of monoclonal antibody bound IL2Rγ reagents were monitored for 8-10 minutes in HBS-ET running buffer. Kinetic association (kₐ) and dissociation (kd) rate constants were determined by fitting the real-time sensorgrams to a 1:1 binding model using Scrubber 2.0c curve fitting software. Binding dissociation equilibrium constants (KD) and dissociative half-lives (t_{1/2}) were calculated from the kinetic rate constants as: […]

[2] = molecular target: T2, Human IL2Rγ extracellular domain …; assay: as above
Method: as §1, §2

[3] = molecular target: T1, Macaca fascicularis IL2Rγ extracellular …; assay: SPR Biacore 4000, mAb captured by anti-hFc, 37C, dissociation in PBS-T pH 6.0
Method: (§3) The dissociation rate constant (kd) for binding of IL-2Rγ reagents to purified anti-IL2Rγ monoclonal antibodies was determined using a real-time surface plasmon resonance based Biacore 4000 biosensor platform. […] The CM5 Biacore sensor surface derivatized by amine coupling with monoclonal mouse anti-human Fc antibody (GE, Catalog # BR-1008-39) was used to capture anti-IL2Rγ monoclonal antibodies expressed with human IgG4 Fc. All the IL2Rγ reagents were expressed with a C-terminal myc-myc-hexahistidine tag (subsequently referred to with a -MMH suffix). […] The dissociation of bound IL-2Rg-MMH was performed in PBS-T-pH7.4 or PBS-T-pH6.0 running buffers for 6 minutes.
(§4) Dissociation rate constants (kd) in two running buffers were determined by fitting the real-time binding sensorgrams to a 1:1 binding model using Scrubber 2.0c curve-fitting software. Values of dissociation rate for […] mAb binding to hIL-2RG-MMH and mfIL-2RG-MMH at 25° C. and 37° C. in PBS-T-pH7.4 and PBS-T-pH6.0 is shown in Table 2-1 through Table 2-8.

[4] = molecular target: T2, Human IL2Rγ extracellular domain …; assay: SPR Biacore 4000, mAb captured by anti-hFc, HBS-ET, 37C
Method: as §1, §2

[5] = molecular target: T1, Macaca fascicularis IL2Rγ extracellular …; assay: SPR Biacore 4000, mAb captured by anti-hFc, 37C, dissociation in PBS-T pH 7.4
Method: as §3, §4

[6] = molecular target: T3, Macaca fascicularis IL2Rγ extracellular …; assay: SPR, captured mAb, 25C, dissociation pH 7.4
Method: as §3, §4

[7] = molecular target: T4, Human IL2Rγ extracellular domain …; assay: SPR, captured mAb, 25C, dissociation pH 7.4
Method: as §3, §4

[8] = molecular target: T4, Human IL2Rγ extracellular domain …; assay: SPR, captured mAb, 37C, dissociation pH 6.0
Method: as §3, §4

[9] = molecular target: T4, Human IL2Rγ extracellular domain …; assay: SPR, captured mAb, 37C, dissociation pH 7.4
Method: as §3, §4

[10] = molecular target: T3, Macaca fascicularis IL2Rγ extracellular …; assay: SPR, captured mAb, 25C, dissociation pH 6.0
Method: as §3, §4

[11] = molecular target: T4, Human IL2Rγ extracellular domain …; assay: SPR, captured mAb, 25C, dissociation pH 6.0
Method: as §3, §4

100 nM Ag Bound [1] [RU] | Kd [1] [nM] | koff [1] [s⁻¹] | kon [1] [M⁻¹ s⁻¹] | t1/2 [1] [min] | 100 nM Ag Bound [2] [RU] | Kd [2] [nM] | koff [2] [s⁻¹] | kon [2] [M⁻¹ s⁻¹] | t1/2 [2] [min] | 100 nM Ag Bound (RU) [3] [RU] | koff [3] [s⁻¹] | t1/2 [3] [min] | 100 nM Ag Bound [4] [RU] | Kd [4] [nM] | koff [4] [s⁻¹] | kon [4] [M⁻¹ s⁻¹] | t1/2 [4] [min] | 100 nM Ag Bound (RU) [5] [RU] | koff [5] [s⁻¹] | Binder | also measured
82 | 1.85 | 0.000315 | 170000 | 37 | 72 | 2.41 | 0.000252 | 105000 | 46 | 91 | 0.0015 | 8 | 103 | 5.01 | 0.00078 | 156000 | 15 | 100 | 0.000512 | H4H13541P (antibody, human IgG4 S228P, kappa, V domains shown, anti-IL2Rγ monoclonal antibody expressed with human IgG4 Fc) VH: EVQLVESGGGVVRPGGSLRLSCAASGFIFDDYDMSWVRQPPGRGLEWVSGIDWFGGTRGYADSMKGRFTISRDNAKNSLYLQMNSLRVEDTAFYYCARGGAIVGAVTPFDYWGQGTLVTVSS VL: DIQMTQSPSSLSASVGNRVTLSCRASQSINTYLSWYQQRPGKAPKLLIYAASSLQSGVPSRFSGSGAGTDFTLTISSLQPEDFATYYCQQSYSAPLTFGGGTKVEIKR | t1/2 [5]: 23 min
– | – | – | – | – | – | – | – | – | – | – | – | – | – | – | – | – | – | – | – | H4H12924P2 (antibody, human IgG4 S228P, kappa, V domains shown, anti-IL2Rgamma mAb expressed with human IgG4 Fc) VH: EVQLVESGGGLVQPGRSLRLSCAASGFTLEDYAMHWVRQAPGKGLEWVSGISWNRGSTGYADSVKGRFTISRDNAKNSLYLQMTSLRAEDTALYYCAKGFYSMDVWGQGTTVTVSS VL: not shown | 100 nM Ag Bound (RU) [6]: 130 RU; koff [6]: 0.000385 s⁻¹; t1/2 [6]: 30 min; 100 nM Ag Bound (RU) [7]: 124 RU; koff [7]: 0.000479 s⁻¹; t1/2 [7]: 24 min; 100 nM Ag Bound (RU) [8]: 133 RU; koff [8]: 0.0143 s⁻¹; t1/2 [8]: 0.8 min; 100 nM Ag Bound (RU) [9]: 133 RU; koff [9]: 0.00302 s⁻¹; t1/2 [9]: 4 min; 100 nM Ag Bound (RU) [10]: 131 RU; koff [10]: 0.00305 s⁻¹; t1/2 [10]: 4 min; 100 nM Ag Bound (RU) [11]: 136 RU; koff [11]: 0.00367 s⁻¹; t1/2 [11]: 3 min
– | – | – | – | – | – | – | – | – | – | – | – | – | – | – | – | – | – | – | – | H4H13544P2 (antibody, human IgG4 S228P, kappa, V domains shown, anti-IL2Rgamma mAb expressed with human IgG4 Fc) VH: QLQLQESGPGLVKPSETLSLTCTVSGGSISIKNYYWGWIRQPPGKGLEWIGSIYYSGTTYYNPSLKSRVTISVDTSKNQFSLKLSSVTAADTAVYHCARHGYSYGHGWFDPWGQGTLVTVSS VL: not shown | 100 nM Ag Bound (RU) [6]: 67 RU; koff [6]: 0.000584 s⁻¹; t1/2 [6]: 20 min; 100 nM Ag Bound (RU) [7]: 57 RU; koff [7]: 0.000602 s⁻¹; t1/2 [7]: 19 min; 100 nM Ag Bound (RU) [8]: 39 RU; koff [8]: 0.00827 s⁻¹; t1/2 [8]: 1.4 min; 100 nM Ag Bound (RU) [9]: 54 RU; koff [9]: 0.0041 s⁻¹; t1/2 [9]: 2.8 min; 100 nM Ag Bound (RU) [10]: 52 RU; koff [10]: 0.0017 s⁻¹; t1/2 [10]: 7 min; 100 nM Ag Bound (RU) [11]: 45 RU; koff [11]: 0.00175 s⁻¹; t1/2 [11]: 7 min
60 | 24.6 | 0.00127 | 51700 | 9 | 51 | 28.7 | 0.00135 | 47200 | 9 | 43 | 0.00781 | 1.5 | 49 | 103 | 0.00782 | 76000 | 1.5 | 58 | 0.00362 | H4H13544P2 (antibody, human IgG4 S228P, kappa, V domains shown, anti-IL2Rγ monoclonal antibody expressed with human IgG4 Fc) VH: QLQLQESGPGLVKPSETLSLTCTVSGGSISIKNYYWGWIRQPPGKGLEWIGSIYYSGTTYYNPSLKSRVTISVDTSKNQFSLKLSSVTAADTAVYHCARHGYSYGHGWFDPWGQGTLVTVSS VL: not shown | t1/2 [5]: 3.2 min
